Laboratory results published in PMC7984235, “Structure‐based design of peptides that trigger Streptococcus pneumoniae cell death” (The Febs Journal, 2020).

B9: Streptococcus pneumoniae HigA antitoxin (natural protein)
chain: MKNNAIGSNWKDVRAELFSKEEILESDMRVAIMSELIEARNEKGISQKKLEEMSGVSQPVIARMETGKTSPQLDTVLKVLASLGKTLAVVPLEHEQV
notes: Cloned with Nde1/Xho1 into pET-21a(+); Forms a dimer within the HigB-(HigA)2-HigB heterotetramer; also called WT HigA; full-length HigA

Key:
HigA [1] = molecular target: T1, HigA (Streptococcus pneumoniae TIGR4, UniProt A0A0H2UQ20 1-97); assay: ITC; n=0.50; ITC: 50 mM MES pH 6.0, 100 mM NaCl, 25 C; […]; settings: protein: recombinant; tags: pET-21a(+), stop codon in reverse primer; chain copies: 2; blunt
HigB;HigA [2] = molecular target: T2, HigB;HigA (Streptococcus pneumoniae …, UniProt A0A0H2UQ08;A0A0H2UQ20 1-121;1-97, |); assay: ITC; n=0.48; ITC: 50 mM MES pH 6.0, 100 mM NaCl, 25 C; […]; settings: protein: recombinant;recombinant; chain copies: 2;2; blunt
[3] = molecular target: B9; assay: cell-based or functional assay
HigB;HigA [4] = molecular target: T2, HigB;HigA; assay: EMSA; up to 0.6 mM protein; ITC: 50 mM MES pH 6.0, 100 mM NaCl, 25 C; […]; settings: protein: recombinant;recombinant; chain copies: 2;2; blunt
HigA [5] = molecular target: T1, HigA; assay: ITC; n=0.53; ITC: 50 mM MES pH 6.0, 100 mM NaCl, 25 C; […]; settings: protein: recombinant; tags: pET-21a(+), stop codon in reverse primer; chain copies: 2; blunt
HigB;HigA [6] = molecular target: T2, HigB;HigA; assay: as above; settings: protein: recombinant;recombinant; chain copies: 2;2; blunt
[7] = molecular target: the molecule itself; assay: SEC; oligomeric state from a molecular weight comparison with various reference proteins (Fig. S2)
HigA [8] = molecular target: T1, HigA; assay: ITC; n=0.51; ITC: 50 mM MES pH 6.0, 100 mM NaCl, 25 C; […]; settings: protein: recombinant; tags: pET-21a(+), stop codon in reverse primer; chain copies: 2; blunt
HigB;HigA [9] = molecular target: T2, HigB;HigA; assay: ITC; n=0.49; ITC: 50 mM MES pH 6.0, 100 mM NaCl, 25 C; […]; settings: protein: recombinant;recombinant; chain copies: 2;2; blunt
[10] = molecular target: the molecule itself; assay: crystal structure; HigBA complex, sitting-drop vapor diffusion at 293 K; protein 11 mg/mL in 50 mM MES pH 6.0, 500 mM NaCl; native data to 2.30 Å, SeMet SAD phasing at 2.80 Å

B1: Pal-III (dsDNA)
DNA 1: TATTTTAATAACTTAAAAGT
DNA 2: ACTTTTAAGTTATTAAAATA
In the case of B1, the Kd (HigA [1]) is reported as 1340 ± 10 nM and the Kd (HigB;HigA [2]) is reported as 200 ± 10 nM.

B2: Streptococcus pneumoniae HigB toxin (enzyme)
chain: MHNIYFYKDKNGNEPVFDYMRELTSKKGKDSRIKLNKINDYIELLSQHGTRAGEPYIKHLDAEIWELRPLRDRILFVAWMDGSFVLLHHFMKRTQKTPKREIEQAKRELADLKERGLDNEK
For B2, the “ribonuclease activity (fluorescence-labeled RNA substrate) of 2 μM HigBA after addition of 10 μM HigB α2 helix-mimicking peptide, relative to free HigB” value [3] was roughly 80%.

B3: X (dsDNA)
DNA 1: GATTTTTTTTGATTTTTTT
DNA 2: AAAAAAATCAAAAAAAATC
B3: no binding (HigB;HigA [4]).

B4: Pal-IV (dsDNA)
DNA 1: TAGGTTATAATTGTTATTAGGAA
DNA 2: TTCCTAATAACAATTATAACCTA
For B4, the Kd (HigB;HigA [2]) was 1190 ± 140 nM.

B5: Pal-I (dsDNA)
DNA 1: AGCATCTAGGAAACTAGGTGCT
DNA 2: AGCACCTAGTTTCCTAGATGCT
With B5 the Kd (HigA [5]) was 1610 ± 20 nM and the Kd (HigB;HigA [6]) was 460 ± 30 nM.

B6: B (dsDNA)
DNA 1: TAATAGAATAATAAGTATCACTCCTTTA
DNA 2: TAAAGGAGTGATACTTATTATTCTATTA
B6: no binding (HigB;HigA [4]).

B7: HigA^19–97 (domain or fragment)
chain: SKEEILESDMRVAIMSELIEARNEKGISQKKLEEMSGVSQPVIARMETGKTSPQLDTVLKVLASLGKTLAVVPLEHEQV
notes: HigA antitoxin, S. pneumoniae strain TIGR4, gene sp_1144, residues 19 to 97; Made 13C/15N-labelled for NMR; tag removed with thrombin (residues of the tag after the thrombin site may remain); also called deletion mutant HigA19-97
For B7, the “stoichiometry N” value [7] was 2.

B8: Pal-II (dsDNA)
DNA 1: AACTTAAAAGTATTTACAAACAATAACTTTTAGGTT
DNA 2: AACCTAAAAGTTATTGTTTGTAAATACTTTTAAGTT
In the case of B8, the Kd (HigA [8]) is reported as 2530 ± 110 nM and the Kd (HigB;HigA [9]) is reported as 700 ± 80 nM.

B9: binds [10].
